2 proteins from patent publication US20110201104A1 (SUNGKYUNKWAN UNIVERSITY FOUNDATION FOR CORPORATE …, published 2011) can be followed below.

This series concerns the molecule itself. Description: size exclusion chromatography (HPLC, TSK G3000SWXL), phosphate buffer pH 7.4; self-association. On the procedure:
0.02 ml of a protein (conc. 5-20 μM) was injected into a TSK G3000SWXL column (TosoHaas, Japan) and a phosphate buffer solution (50 mM sodium phosphate/150 mM NaCl, pH 7.4) was flowed therein at a flow rate of 0.7 ml/min and the chromatogram of the proteins was obtained from the absorbance at 280 nm.

B1: 3D8 VH protein (heavy-chain variable domain of anti-DNA antibody 3D8) (other)
VH: EVQLQQSGPELVKPGASVKMSCKASGYTFTSYVMHWVKQKPGQGLEWIGYINPYNDGTKYNEKFKGKATLTSDKSSSTAYMELSSLTSEDSAVYYCARGAYKRGYAMDYWGQGTSVTVSS
notes: Isolated single VH domain of mouse (MRL-lpr/lpr) IgG2a/kappa antibody 3D8; It was expressed in E. coli from vector pIg20H-3D8 VH and purified on IgG-sepharose
B1: the binding result was “no binding (tested: 5-20 µM)”.

B2: 3D8 VL protein (light-chain variable domain of anti-DNA antibody 3D8) (other)
VL: DIVMSQSPSSLAVSAGEKVTMSCKSSQSLFNSRTRKNYLAWYQQKPGQSPKLLIYWASTRESGVPDRFTGSGPGTDFTLTISSVQAEDLAVYYCKQSYYHMYTFGSGTKLEIKRAD
notes: Isolated single VL domain of mouse (MRL-lpr/lpr) IgG2a/kappa antibody 3D8; It was expressed in E. coli from vector pIg20L-3D8 VL and purified on IgG-sepharose; This domain was immobilized on the CM5 chip in the SPR assay
With B2, the binding result was “no binding (tested: 5-20 µM)”.
